Test results reported in USRE49495E1, “Binding polypeptides having a mutated scaffold” (Affibody AB, priority 2013, dated 2023).

B1: PSI0383 (designed binder)
chain: AEAKYAKEVLEAWDEIDRLPNLTIEQWLAFINKLDRQPEQSSELLSEAKKLSESQAPKVEGSLAEAKEAANAELDSYGVSDFYKRLIDKAKTVEGVEALKDAILAALP
notes: positions 52-53 changed from ND to SE against PSI0242
B2: Z17344 (designed binder)
chain: MGSSHHHHHHLQAEAKYAKELIEAAAEIDALPNLTRRQWNAFIKKLVRQPEQSSELLSEAKKLSESQAPK

Columns and labels:
[1] = target: T1, human C5 (Quidel, cat. no. A403) (human, UniProt P01031 19-673; P01031 678-1676, limits assumed); assay: BLI (ForteBio), compound captured on HSA sensor, human C5 0.79-25 nM, 1:1 model
T1 construct: Bought protein; also called hC5; human complement component 5

[2] = target: T2, human PDGF-Rβ (R&D Systems, cat. no. 385-PR-100/CF) (human, UniProt P09619 33-530, limits assumed); assay: SPR Biacore 2000, PDGF-Rβ on CM5 chip, 1:1 binding with mass transfer; KD after 2 weeks at 37 C against KD before
T2 construct: Bought; also called platelet-derived growth factor receptor beta

[3] = target: T2, human PDGF-Rβ (R&D Systems, cat. no. …); assay: SPR Biacore 2000, PDGF-Rβ on CM5 chip, 1:1 binding with mass transfer; sample (2w) after 2 weeks at 37 C; reference Z15805 (2w)
[4] = target: T2, human PDGF-Rβ (R&D Systems, cat. no. …); assay: SPR Biacore 2000, PDGF-Rβ on CM5 chip, 1:1 binding with mass transfer; sample (0) before stability test
[5] = target: T2, human PDGF-Rβ (R&D Systems, cat. no. …); assay: SPR Biacore 2000, PDGF-Rβ on CM5 chip, 1:1 binding with mass transfer; sample (0) before stability test; reference Z15805 (0)
[6] = target: T2, human PDGF-Rβ (R&D Systems, cat. no. …); assay: SPR Biacore 2000, PDGF-Rβ on CM5 chip, 1:1 binding with mass transfer; sample (2w) after 2 weeks at 37 C

T2 sequence (P09619 33-530 limits assumed): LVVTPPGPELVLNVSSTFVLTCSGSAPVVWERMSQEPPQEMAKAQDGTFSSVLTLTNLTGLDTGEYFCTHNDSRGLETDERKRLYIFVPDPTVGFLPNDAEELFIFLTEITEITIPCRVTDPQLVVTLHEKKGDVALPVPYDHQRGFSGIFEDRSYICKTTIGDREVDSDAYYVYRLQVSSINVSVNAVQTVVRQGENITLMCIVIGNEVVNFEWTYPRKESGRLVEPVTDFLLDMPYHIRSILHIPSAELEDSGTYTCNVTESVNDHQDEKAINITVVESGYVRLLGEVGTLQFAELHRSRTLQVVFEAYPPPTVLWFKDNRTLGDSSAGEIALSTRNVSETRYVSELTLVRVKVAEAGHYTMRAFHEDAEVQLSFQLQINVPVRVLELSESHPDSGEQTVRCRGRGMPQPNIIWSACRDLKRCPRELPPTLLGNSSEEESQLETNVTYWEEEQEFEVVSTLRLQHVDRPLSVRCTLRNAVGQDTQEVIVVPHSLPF

| Binder | Rel. KD [1] | KD(2w)/KD(0) [2] | KDInv/KDOrig [3] | Kd [4] | koff [4] | kon [4] | KDInv/KDOrig [5] | Kd [6] | koff [6] | kon [6] |
| --- | --- | --- | --- | --- | --- | --- | --- | --- | --- | --- |
| B1 | 2.1 ratio to PSI0242 | – | – | – | – | – | – | – | – | – |
| B2 | – | 0.93 ratio | 3.88 ratio | 1.2 nM | 0.0616 s⁻¹ | 5.15e+07 M⁻¹ s⁻¹ | 6.19 ratio | 1.1 nM | 0.0623 s⁻¹ | 5.62e+07 M⁻¹ s⁻¹ |
